The assay addresses T1, recombinant human MD2 (human, UniProt Q9Y6Y9 19-160).
T1 construct: myeloid differentiation factor 2 (MD2), human, recombinant; No catalogue number is printed; PDB 2E56 was used only for docking; also called rhMD2; myeloid differentiation factor 2; source: bought: R&D Systems
T1 sequence: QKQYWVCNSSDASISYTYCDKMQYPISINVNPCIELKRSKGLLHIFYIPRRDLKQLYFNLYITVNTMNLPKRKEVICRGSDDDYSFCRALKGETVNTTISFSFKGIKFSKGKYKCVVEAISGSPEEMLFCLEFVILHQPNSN
Put plainly: SPR; Biacore T200, CM5 chip, target protein amine-coupled; irisin flowed at seven concentrations, 30 μL/min, 200 s association, 200 s dissociation, 25 °C, PBS with 0.5% P20; global fit with a 1:1 Langmuir model. The conditions noted are these: both partners purified. Background: In SPR one partner is held on a chip, and binding of the other changes the refractive index at the surface.

The record followed here is publication PMC8699279, “Exercise-Induced Irisin Decreases Inflammation and Improves NAFLD by Competitive Binding with MD2” (Cells, 2021).

B1: recombinant irisin (ligand)
chain: DSPSAPVNVTVRHLKANSAVVSWDVLEDEVVIGFAISQQKKDVRMLRFIQEVNTTTRSCALWDLEEDTEYIVHVQAISIQGQSPASEPVLFKTPREAEKMASKNKDEVTMKE
modifications: Commercial recombinant protein (Phoenix Pharmaceuticals); catalogue number, host and glycosylation not stated. Limits are the conventional 112-aa mature irisin: residues 32-143 of the 212-aa FNDC5 …
One may read the Kd as the equilibrium constant for the complex coming apart. As to B1, the Kd was 1.65 nM.
